This is an account of results in publication PMC11878559.

One may read the stoichiometry N as a count of units in the complex or per binding partner.

The assay addresses StbD antitoxin of plasmid pHNSHP45 (p45), untagged (plasmid pHNSHP45 (p45), studied in E. coli). The experiment in a line: tricine-SDS-PAGE of the purified StbDE complex.

The substance “StbD antitoxin of plasmid pHNSHP45 (p45), untagged (natural protein)” gave a stoichiometry N of 2.
